Measurements published in PMC9233695, “Structural mechanism of protein recognition by the FW domain of autophagy receptor Nbr1” (Nature Communications, 2022).

Columns and labels:
[1] = target: GST-CtNbr1(635–775) (Chaetomium thermophilum); test: SPR; Biacore T200, 25 °C; GST-FW domain captured by anti-GST antibody on a CM5 chip to about 200 RU; CtAms1 protein flowed, 50 to 1.56 nM; 10 mM HEPES pH 7.4, 150 mM NaCl, 0.05% Tween 20; 1:1 binding model
[2] = target: GST-CtNbr1(635–775) (Chaetomium thermophilum); test: SPR; Biacore T200, 25 °C; GST-FW domain captured by anti-GST antibody on a CM5 chip to about 700 RU; synthetic peptide flowed, 100 to 3.13 μM; 10 mM HEPES pH 7.4, 150 mM NaCl, 0.05% Tween 20; steady-state model
[3] = target: GST-hNBR1(358-498) (human) (UniProt Q14596); test: as above
Chain of GST-hNBR1(358-498) (human) (Q14596 358-498): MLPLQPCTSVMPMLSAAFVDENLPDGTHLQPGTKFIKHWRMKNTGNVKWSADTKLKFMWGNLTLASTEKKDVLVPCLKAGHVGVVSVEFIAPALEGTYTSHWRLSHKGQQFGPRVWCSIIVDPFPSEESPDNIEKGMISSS

[4] = target: the molecule itself; test: cryo-EM structure; CtAms1-CtNbr1 FW-MBP fusion protein, 2.2 Å, D2 symmetry
CtNbr1 = test: Pil1 co-tethering assay, candidate cargo proteins with CtNbr1; type: cell-based, Chaetomium thermophilum; conditions: Pil1-mCherry-CtNbr1 bait, mECitrine prey, co-expressed in S. pombe, EMM medium, 30 °C; fluorescence microscopy; two independent experiments
Description: To investigate whether this receptor-cargo relationship is conserved in C. thermophilum, we examined whether CtNbr1 interacts with the Ct homologs of NVT cargo proteins using an imaging-based Pil1 co-tethering assay. In this assay, CtNbr1 was fused to the C-terminus of the Pil1-mCherry fusion protein, which localizes to distinctive filamentary structures. A cargo protein of interest was fused to the N-terminus of fluorescent protein mECitrine. The two proteins were co-expressed in S. pombe and if they interact with each other, co-localization on filamentary structures would be observed. […] To map which domain is responsible for binding CtAms1, a series of CtNbr1 fragments were analyzed (Fig. 1b).
Plasmids expressing proteins with mECitrine/mCherry/GFP tags under the control of Pnmt1 or P41nmt1 promoter were constructed using modified pDUAL vectors. […]
(§1) Fission yeast cells were grown to mid-log phase in EMM medium at 30 °C. […] Images were obtained with a 100 × 1.4NA objective and analyzed with the SoftWoRx software.
(§2) To examine a pair-wise protein-protein interaction, a bait protein was fused to Pil1-mCherry, and a prey protein was fused to mECitrine. Cells co-expressing both proteins were grown to mid-log phase in EMM medium at 30 °C for fluorescence microscopy. […]

CtNbr1-FW-D654E = test: Pil1 co-tethering assay, CtAms1 and mutants with CtNbr1 FW domain D654E; type: cell-based, Chaetomium thermophilum; conditions: CtNbr1-FW-D654E fused to Pil1-mCherry, CtAms1-mECitrine or mutants, in S. pombe, 30 °C; two independent experiments
Description: (§3) Fig. 4 Mutational analysis of interactions between CtAms1 and CtNbr1-FW. a–c Pil1 co-tethering assay. CtNbr1 FW domain and its mutants were fused to Pil1-mCherry and co-expressed with CtAms1-mECitrine or its mutants in S. pombe. Cells were imaged by fluorescence microscopy. Bar, 3 μm. The data shown are representative of two independent experiments with similar results. Source data are provided as a Source Data file. d SPR analysis of the CtNbr1-CtAms1 interaction. GST-tagged CtNbr1 FW domain or its mutants was bound to a CM5 sensor chip. CtAms1 or CtAms1-G2A (twofold serial dilutions from 50 nM to 1.56 nM) flowed through the chip surface. The experiments were performed once. e SPR analysis of the interactions of CtNbr1 and hNBR1 with CtAms1 N-terminal peptides. GST-tagged CtNbr1 FW domain or hNBR1 FW domain was bound to a CM5 sensor chip. Chemically synthesized CtAms1 N-terminal peptides (twofold serial dilutions from 100 μM to 3.13 μM) flowed through the chip surface. […]
as §1, §2

CtNbr1-FW-W763A = test: SPR analysis of CtNbr1-FW-W763A with CtAms1 protein; type: binding, Chaetomium thermophilum; conditions: Biacore T200, 25 °C, GST-CtNbr1 FW W763A mutant captured on CM5 chip, about 200 RU, 10 mM HEPES, pH 7.4, 150 mM NaCl, 0.05% Tween 20, CtAms1 50 to 1.56 nM, performed once
Description: as §3
(§4) Wild-type and mutant forms of GST-CtNbr1(635–775) and wild-type GST-hNBR1(358-498) were purified from E. coli, and FLAG2-His6 (FFH)-tagged CtAms1 and CtAms1-G2A were purified from S. pombe. […] The dissociation constants (KD) were calculated by fitting the sensorgrams to a 1:1 binding model (for protein–protein interaction) or a steady-state model (for protein-peptide interaction) using Biacore T200 evaluation software.

CtNbr1-FW = test: SPR analysis of CtNbr1-FW with CtAms1 protein; design: species or system Chaetomium thermophilum; conditions: Biacore T200, 25 °C, GST-CtNbr1(635–775) captured by anti-GST on CM5 chip, about 200 RU, 10 mM HEPES, pH 7.4, 150 mM NaCl, 0.05% Tween 20, CtAms1 protein 50 to 1.56 nM twofold dilutions, 1:1 binding model, performed once, read-out: dissociation constant (KD)
Description: as §3, §4

CtNbr1-FW-D654A = test: SPR analysis of CtNbr1-FW-D654A with CtAms1 protein; type: binding, Chaetomium thermophilum; conditions: Biacore T200, 25 °C, GST-CtNbr1 FW D654A mutant captured on CM5 chip, about 200 RU, 10 mM HEPES, pH 7.4, 150 mM NaCl, 0.05% Tween 20, CtAms1 50 to 1.56 nM, performed once
Description: as §3, §4

S. pombe cells = test: Localization / vacuolar entry of CtAms1-mCherry in S. pombe; type: cell-based, Schizosaccharomyces pombe
Description: Fig. 5 CtNbr1 mediates vacuolar targeting of CtAms1 via conventional autophagy machinery in S. pombe. a CtNbr1 interacts with SpAtg8 in Pil1 co-tethering assay. SpAtg8(1−115), which lacks the G116 residue required for lipidation, was fused to Pil1-mCherry and co-expressed with mECitrine-tagged CtNbr1 in S. pombe. Pil1-mCherry served as a negative control. Cells were observed by fluorescence microscopy. Bar, 3 μm. b CtNbr1 can enter the vacuole through autophagy in nitrogen-starved S. pombe cells. CtNbr1-mCherry was expressed in wild-type and atg5Δ cells. SpCpy1-Venus was used as a vacuole lumen marker. Cells were collected before (0 h) and 8 h after nitrogen starvation (-N) and examined by fluorescence microscopy. […] C-terminally mCherry-tagged CtAms1, CtAms1-G2A, and CtAms1-G3A were individually co-expressed with untagged CtNbr1 in wild-type S. pombe cells. CtAms1-mCherry alone expressed in wild-type cells served as a negative control. CtAms1-mCherry was also co-expressed with untagged CtNbr1 in atg5Δ cells. Cells were collected before (0 h) and 3 h after nitrogen starvation and were examined by fluorescence microscopy. Bar, 3 μm. The data shown are representative of two independent experiments with similar results. Source data are provided as a Source Data file.
Plasmids expressing mECitrine- or mCherry-tagged CtNbr1 under the control of the P41nmt1 promoter and plasmids expressing mCherry-tagged CtAms1 under the control of the P41nmt1 promoter were constructed using modified stable integration vectors. Plasmids were linearized by NotI digestion and integrated at the ura4 or ade6 locus of the S. pombe genome.
Fission yeast cells were grown to mid-log phase in EMM medium at 30 °C. Microscopy was performed using the DeltaVision PersonalDV system (Applied Precision) equipped with a mCherry/YFP filter set (Chroma 89006 set) and a Photometrics Evolve 512 EMCCD camera. Images were obtained with a 100 × 1.4NA objective and analyzed with the SoftWoRx software.

Chain of GST-CtNbr1(635–775) (Chaetomium thermophilum) (main, as listed by the source): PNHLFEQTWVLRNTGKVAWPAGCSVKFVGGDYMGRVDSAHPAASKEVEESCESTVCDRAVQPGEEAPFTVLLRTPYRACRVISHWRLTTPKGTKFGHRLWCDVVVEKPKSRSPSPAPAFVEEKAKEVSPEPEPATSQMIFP

FLAG2-His6 (FFH)-tagged CtAms1 (natural protein)
Kd [1]: 0.0034 µM

CtAms1(2–15) peptide
Kd [2]: 23 µM
Kd [3]: 110 µM

B1: CtAms1 in the CtAms1-CtNbr1 FW-MBP fusion protein (natural protein, Chaetomium thermophilum, UniProt G0SGP6 1-1079, looked up)
chain: MGGETFDVKGPRPNDYPLRAPKPVGQLISHIYKDRIAQFYNGGQYEHQNLRAMMKEDSVSGEPHVQLWVWHAPGQTRPSFEEAVSNQFVKTNVGEWFGPSWTTHWFRVVLTVPEHLQNKRLLEFHWDSNSEGLVWSEDGKPLQGLTGGGERVEWILPDSFRDGKEHTIYIEMACNRMFGNAPGGDSIQPPDPNKYFRLDKAEIVAIDPDARQLWIDIWILQDAAREFPGDSWESHKALQVCNEIIEAFELGNRESLKKCRKIAEQYLGPNVDSPNVYNSGKEPLVYAIGHCHIDSCWLWPFAETKRKVVRSWSSQCDLMDRYPELNFVCSQAQQYKWLKQLYPYAFERVKKKVAEGRFHPIGGSWVEHDTNMPSGESLVRQFLYGQRFYESNFGKRCKTFWLPDTFGYSAQLPQLCRLAGMTRFLTQKLSWNNINRFPHTTFNWVALDGSQVICHMPPSETYTAEAHFGDVKRSMSQHKSLDQDNTSLLVFGKGDGGGGPTWVQIEKLRRCRGISDTVGLLPRVHMGSSVDDFFDRLERKADTFVTWYGELYFELHRGTYTTQAKNKKNNRRAEAKLRDLELLATIASVQDKSYKYPKEEFDAMWENVLLCQFHDCLPGSSIEMAYRESDQMYADVFSTAEKIMKGVSQVLGLEPALNHMSTTNTVALNTLPWPRRELVKISEKEAAVAHGTGPFLKLQKLETTKPLVTLRQVTKGAFVLENSQLRVHVEKGVITSLYDKQANREVIPKGQKANQYVIFDDKPLYWQAWDVEVYHLDTRKELPSGETEVHENTPHRVSVVTRTKVSDKSHIQTIIALNGAVEGEQSWVEVQSKVDWHETMKFLKVEFPVDVRNTEASYETAFGIVRRPTHYNTSWDMAKFEVCAHRWADLSEYGYGVSILNDSKYGFATAGQTMRLSLLRSPKAPDAHADMGTHHIRWAILPHQGSLSHVTIRKAFEFNNPTKLYSSPDAAALVAAPPPVWLTPDSSPAIVLDTVKRGEDDEDVSRGELPARKGQSVILRMYDSLGGLARGTVVTTWPLKKVCKVNLLEDDLEVVPWENGRFTVELRPFEVASYRLVLA
notes: full-length Ams1 of Chaetomium thermophilum; the first methionine is processed (density map); model holds residues 2-1079; also called CtAms1_1; CtAms1_3; source: S. pombe (Pnmt1 promoter), fusion protein purified (GFP-Trap beads, released with 3C protease)
stoichiometry N [4]: 4

B2: CtAms1: Chaetomium thermophilum α-mannosidase Ams1 (CTHT_0067100) (protein)
chain: B1 chain
interaction with CtNbr1 (CtNbr1): interacted
binding to D654E mutant of CtNbr1 FW domain (CtNbr1-FW-D654E): bound
dissociation constant (KD) (CtNbr1-FW-W763A): No binding
Kd (CtNbr1-FW): 0.0034 µM
dissociation constant (KD) (CtNbr1-FW-D654A): No binding
localization of CtAms1 expressed alone (S. pombe cells; no CtNbr1, nutrient-rich and nitrogen starvation (3 h), wild-type S. pombe, CtAms1-mCherry): diffuse cytoplasmic distribution
CtNbr1-dependent vacuolar entry (S. pombe cells; untagged CtNbr1 co-expressed, 3 h nitrogen starvation, atg5Δ S. pombe): abolished
vacuolar entry on co-expression of CtNbr1 (S. pombe cells; untagged CtNbr1 co-expressed, 3 h nitrogen starvation, wild-type S. pombe): vacuolar entry
cell periphery accumulation on co-expression of CtNbr1 (S. pombe cells; untagged CtNbr1 co-expressed, nutrient-rich conditions (0 h), wild-type S. pombe): cell periphery accumulation
